Source: the supplement of paper PMC9112550, “Optimization of the antimicrobial peptide Bac7 by deep mutational scanning” (BMC Biology, 2022)

What follows are sequences tested on Escherichia coli TOP10 (assay: shrunken log2 fold change of peptide-encoding DNA abundance (4.5 h post-induction vs induction); higher = less antimicrobial activity (less host growth inhibition)). Settings: time post-induction: 4.5 h; library: site-saturation at positions 5, 18, 19, 20.
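Note: peptides expressed intracellularly from a pBAD plasmid library in pooled LB shake-flask culture, induced with 0.3% L-arabinose, DNA abundance read by NGS, three biological replicates, DESeq2 with apeglm shrinkage.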

Row | Sequence | shrunken log2 fold change
1 | RRIRYRPPRLPRPRPRPMFFPRP | -0.618
2 | RRIRYRPPRLPRPRPRPMGFPRP | -0.179
3 | RRIRYRPPRLPRPRPRPMHSPRP | -1.02
4 | RRIRYRPPRLPRPRPRPMIEPRP | 0.00164
5 | RRIRYRPPRLPRPRPRPMIQPRP | -0.0921
6 | RRIRYRPPRLPRPRPRPMLYPRP | -0.877
7 | RRIRYRPPRLPRPRPRPMNSPRP | -0.0134
8 | RRIRYRPPRLPRPRPRPMNTPRP | -1.25
9 | RRIRYRPPRLPRPRPRPMPDPRP | -0.204
10 | RRIRYRPPRLPRPRPRPMQYPRP | -0.131
11 | RRIRYRPPRLPRPRPRPMVPPRP | -0.909
12 | RRIRYRPPRLPRPRPRPMVRPRP | -0.0135
13 | RRIRYRPPRLPRPRPRPMWKPRP | -0.00663
14 | RRIRYRPPRLPRPRPRPMWRPRP | -0.27
15 | RRIRYRPPRLPRPRPRPMYPPRP | -0.00192
16 | RRIRYRPPRLPRPRPRPNASPRP | -0.088
17 | RRIRYRPPRLPRPRPRPNCKPRP | -0.504
18 | RRIRYRPPRLPRPRPRPNDPPRP | -0.549
19 | RRIRYRPPRLPRPRPRPNGFPRP | -0.219
20 | RRIRYRPPRLPRPRPRPNGWPRP | -0.0316
21 | RRIRYRPPRLPRPRPRPNKTPRP | -0.258
22 | RRIRYRPPRLPRPRPRPNMGPRP | -0.00101
23 | RRIRYRPPRLPRPRPRPNNPPRP | -0.359
24 | RRIRYRPPRLPRPRPRPNNWPRP | -0.398
25 | RRIRYRPPRLPRPRPRPNQGPRP | -0.00893

Row | Sequence | shrunken log2 fold change
26 | RRIRYRPPRLPRPRPRPNTDPRP | -0.964
27 | RRIRYRPPRLPRPRPRPNTFPRP | -1.24
28 | RRIRYRPPRLPRPRPRPNTIPRP | -1.05
29 | RRIRYRPPRLPRPRPRPNTRPRP | -0.703
30 | RRIRYRPPRLPRPRPRPNTWPRP | -0.204
31 | RRIRYRPPRLPRPRPRPNTYPRP | -0.988
32 | RRIRYRPPRLPRPRPRPNWSPRP | 0.0306
33 | RRIRYRPPRLPRPRPRPNYWPRP | -0.698
34 | RRIRYRPPRLPRPRPRPPELPRP | 0.162
35 | RRIRYRPPRLPRPRPRPPGQPRP | 0.0011
36 | RRIRYRPPRLPRPRPRPPGVPRP | 0.259
37 | RRIRYRPPRLPRPRPRPPIKPRP | -0.518
38 | RRIRYRPPRLPRPRPRPPLAPRP | 0.13
39 | RRIRYRPPRLPRPRPRPPLGPRP | -0.258
40 | RRIRYRPPRLPRPRPRPPLSPRP | -0.283
41 | RRIRYRPPRLPRPRPRPPNIPRP | -0.659
42 | RRIRYRPPRLPRPRPRPPPIPRP | 0.0596
43 | RRIRYRPPRLPRPRPRPPPMPRP | 0.46
44 | RRIRYRPPRLPRPRPRPPQPPRP | 0.436
45 | RRIRYRPPRLPRPRPRPPRKPRP | 0.319
46 | RRIRYRPPRLPRPRPRPPRMPRP | -0.215
47 | RRIRYRPPRLPRPRPRPPRSPRP | -0.148
48 | RRIRYRPPRLPRPRPRPPSFPRP | 0.0588
49 | RRIRYRPPRLPRPRPRPPTRPRP | 0.277
50 | RRIRYRPPRLPRPRPRPPVRPRP | 0.0631

Row | Sequence | shrunken log2 fold change
51 | RRIRYRPPRLPRPRPRPPWYPRP | -0.786
52 | RRIRYRPPRLPRPRPRPPYIPRP | -0.496
53 | RRIRYRPPRLPRPRPRPQCSPRP | -0.73
54 | RRIRYRPPRLPRPRPRPQDCPRP | -0.363
55 | RRIRYRPPRLPRPRPRPQDEPRP | -0.0312
56 | RRIRYRPPRLPRPRPRPQDKPRP | -0.341
57 | RRIRYRPPRLPRPRPRPQGKPRP | -0.00664
58 | RRIRYRPPRLPRPRPRPQGPPRP | -0.0382
59 | RRIRYRPPRLPRPRPRPQHGPRP | -0.0664
60 | RRIRYRPPRLPRPRPRPQHQPRP | -0.304
61 | RRIRYRPPRLPRPRPRPQHRPRP | -0.602
62 | RRIRYRPPRLPRPRPRPQIKPRP | -0.969
63 | RRIRYRPPRLPRPRPRPQIQPRP | -0.473
64 | RRIRYRPPRLPRPRPRPQMDPRP | -0.801
65 | RRIRYRPPRLPRPRPRPQMMPRP | -0.536
66 | RRIRYRPPRLPRPRPRPQMQPRP | -0.794
67 | RRIRYRPPRLPRPRPRPQMSPRP | -0.0435
68 | RRIRYRPPRLPRPRPRPQMYPRP | -0.286
69 | RRIRYRPPRLPRPRPRPQPMPRP | -0.159
70 | RRIRYRPPRLPRPRPRPQSNPRP | -0.07
71 | RRIRYRPPRLPRPRPRPQSVPRP | -0.11
72 | RRIRYRPPRLPRPRPRPQTCPRP | -0.0146
73 | RRIRYRPPRLPRPRPRPQTDPRP | -0.274
74 | RRIRYRPPRLPRPRPRPQVIPRP | -0.0134
75 | RRIRYRPPRLPRPRPRPQYSPRP | -1.71

Row | Sequence | shrunken log2 fold change
76 | RRIRYRPPRLPRPRPRPREAPRP | 0.469
77 | RRIRYRPPRLPRPRPRPRGCPRP | -0.286
78 | RRIRYRPPRLPRPRPRPRGTPRP | 0.173
79 | RRIRYRPPRLPRPRPRPRHFPRP | -0.209
80 | RRIRYRPPRLPRPRPRPRIHPRP | -0.287
81 | RRIRYRPPRLPRPRPRPRKAPRP | 0.00796
82 | RRIRYRPPRLPRPRPRPRKDPRP | -0.288
83 | RRIRYRPPRLPRPRPRPRKLPRP | -0.14
84 | RRIRYRPPRLPRPRPRPRLRPRP | 0.0744
85 | RRIRYRPPRLPRPRPRPRMCPRP | -0.0134
86 | RRIRYRPPRLPRPRPRPRMSPRP | 0.256
87 | RRIRYRPPRLPRPRPRPRNTPRP | -0.503
88 | RRIRYRPPRLPRPRPRPRPKPRP | 0.374
89 | RRIRYRPPRLPRPRPRPRQSPRP | -0.0113
90 | RRIRYRPPRLPRPRPRPRRWPRP | 0.309
91 | RRIRYRPPRLPRPRPRPRSVPRP | -0.0717
92 | RRIRYRPPRLPRPRPRPRTPPRP | -0.149
93 | RRIRYRPPRLPRPRPRPRWFPRP | -0.0532
94 | RRIRYRPPRLPRPRPRPRWHPRP | -0.124
95 | RRIRYRPPRLPRPRPRPRWQPRP | 0.033
96 | RRIRYRPPRLPRPRPRPSAGPRP | -0.165
97 | RRIRYRPPRLPRPRPRPSDTPRP | -1.27
98 | RRIRYRPPRLPRPRPRPSDWPRP | -0.152
99 | RRIRYRPPRLPRPRPRPSETPRP | -0.523
100 | RRIRYRPPRLPRPRPRPSFDPRP | -1.2

Row | Sequence | shrunken log2 fold change
101 | RRIRYRPPRLPRPRPRPSFIPRP | -0.851
102 | RRIRYRPPRLPRPRPRPSGQPRP | -0.000925
103 | RRIRYRPPRLPRPRPRPSICPRP | -0.0533
104 | RRIRYRPPRLPRPRPRPSIFPRP | -0.654
105 | RRIRYRPPRLPRPRPRPSIVPRP | -0.912
106 | RRIRYRPPRLPRPRPRPSKFPRP | -0.299
107 | RRIRYRPPRLPRPRPRPSLHPRP | -0.622
108 | RRIRYRPPRLPRPRPRPSLQPRP | -0.126
109 | RRIRYRPPRLPRPRPRPSNSPRP | -1.15
110 | RRIRYRPPRLPRPRPRPSPDPRP | -0.0956
111 | RRIRYRPPRLPRPRPRPSQNPRP | -0.874
112 | RRIRYRPPRLPRPRPRPSREPRP | -0.0635
113 | RRIRYRPPRLPRPRPRPSRIPRP | 0.0535
114 | RRIRYRPPRLPRPRPRPSRMPRP | -0.303
115 | RRIRYRPPRLPRPRPRPSSAPRP | -0.197
116 | RRIRYRPPRLPRPRPRPSSSPRP | -0.166
117 | RRIRYRPPRLPRPRPRPSTFPRP | -0.282
118 | RRIRYRPPRLPRPRPRPSTPPRP | -0.24
119 | RRIRYRPPRLPRPRPRPSTTPRP | -0.717
120 | RRIRYRPPRLPRPRPRPSTVPRP | -0.0902
121 | RRIRYRPPRLPRPRPRPSVYPRP | -0.888
122 | RRIRYRPPRLPRPRPRPSWKPRP | -0.111
123 | RRIRYRPPRLPRPRPRPSYIPRP | -1.4
124 | RRIRYRPPRLPRPRPRPTCHPRP | -1.16
125 | RRIRYRPPRLPRPRPRPTCYPRP | -0.582

Row | Sequence | shrunken log2 fold change
126 | RRIRYRPPRLPRPRPRPTEEPRP | -0.2
127 | RRIRYRPPRLPRPRPRPTENPRP | -0.239
128 | RRIRYRPPRLPRPRPRPTEYPRP | -0.204
129 | RRIRYRPPRLPRPRPRPTFCPRP | 0.115
130 | RRIRYRPPRLPRPRPRPTFIPRP | -0.0922
131 | RRIRYRPPRLPRPRPRPTFTPRP | -0.566
132 | RRIRYRPPRLPRPRPRPTGNPRP | -0.858
133 | RRIRYRPPRLPRPRPRPTHAPRP | -0.0504
134 | RRIRYRPPRLPRPRPRPTHMPRP | -0.429
135 | RRIRYRPPRLPRPRPRPTHNPRP | -0.702
136 | RRIRYRPPRLPRPRPRPTIWPRP | -0.196
137 | RRIRYRPPRLPRPRPRPTKSPRP | -0.517
138 | RRIRYRPPRLPRPRPRPTKVPRP | -0.235
139 | RRIRYRPPRLPRPRPRPTLIPRP | -0.743
140 | RRIRYRPPRLPRPRPRPTMRPRP | 0.243
141 | RRIRYRPPRLPRPRPRPTMSPRP | -0.0772
142 | RRIRYRPPRLPRPRPRPTMTPRP | -0.859
143 | RRIRYRPPRLPRPRPRPTMVPRP | -0.269
144 | RRIRYRPPRLPRPRPRPTNCPRP | -1.27
145 | RRIRYRPPRLPRPRPRPTQEPRP | 0.0039
146 | RRIRYRPPRLPRPRPRPTQFPRP | -0.558
147 | RRIRYRPPRLPRPRPRPTQMPRP | -0.213
148 | RRIRYRPPRLPRPRPRPTRGPRP | 0.543
149 | RRIRYRPPRLPRPRPRPTRIPRP | -0.0491
150 | RRIRYRPPRLPRPRPRPTRWPRP | 0.211
